Reference: the nanobody polyreactivity screen of Harvey et al. (2022)

Assay: yeast display, Sf9 membrane polyspecificity reagent, FACS + sequencing; frameworks hold sequencing errors
Summary of the method: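 In a synthetic yeast display library (Saccharomyces cerevisiae BJ5465), nanobody expression was induced with galactose for 36–48 hours. FACS gates were set low and high (top ~1%) using anti-HA fluorescence for expression and streptavidin fluorescence for binding of the Sf9 membrane reagent. Each polyreactivity label is drawn from the gate of origin.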

Sequence | polyreactivity (PSR sort gate)
QVKLVESGGGIVKAGCSLRLSCGASGLTYNTYDMGWYRQAPGKERELVADISRGRGSTYYADSVKGRFTISRDNAKNTVYLQMHSLKPEDTAFYYCNAEKRSSYLMYDYWGQGTQVTVSS | high polyreactivity
QVQLVESGGGLVQAGGSLSLICDASRFTFGFYAMGWYRQAPGKERELHAAISTTVGSTYYADSVKGRFTISRDNAKNTVYLQMNSLKPEDTAVFYCAAEYTGYINYYIYEYWRQGTQVTVSS | low polyreactivity
QVQLVESGGGLVQAGGSLRLSCAASGSMSYGYGMGWYRQAPGKEREVVATISGRAGSTYYADSVKGRFTISRDNAKNTVYLQINSLQPEDTAVYYCAAKWWRLTWTAGYGGRGYGYWGQGTQVTVSS | low polyreactivity
QVQLVESGGGLVQAGGSLRLSCAASGRIFSVYGMGWYRQAPGKDRELVAAISSSAGSTNYADSVKGRFTISRDNAKNTVYLQMNSLKPEDTAVYYCAAYYRRVVYYPTAYYIRKYDYWGQGTQVTVSS | high polyreactivity
QVQLVESGGGLVQAGGSLRLSCAASGSIIVGYAMGWYRQAPGKEREMVALISSDCDTYYADSVKGRFTISRDNAKNTVYLQMNSLKAEDTAVYYCNADLYGGGDKSVISGLNGEYEYWGQGTQVTVSS | low polyreactivity
QVQLVESGGGLVQAGGSLRLSCAASGNIFGRYAMGWYRQAPGKARELVAAISGSGGRTYYADSVKGRFTISRYNAKKTVYLQMNSLKPEDTAVYYCAKVFALRGYDYWGQGTQVTVSS | high polyreactivity
QVQLVESGGGLVQAGGSLRLSCAASGFTFRRYDMGWYRQAPGKERELVATINRGGSTDYADSVKGRFTISRDNAKNTVYLQLNSLKPEDTAVYYCATRYYSSRTWSEYYYWGQGTQVTVSS | high polyreactivity
QVQLVESGGGLVQAGGSLRLSCAASGSTFRRYAMGWYRPAPGKERELVAAISTRGGSTYYADSVKGRFTISRDNAKNTVYLQMNSLKPEDTAVYYCAADEPKYTSSSSRRYGYWGQGTQVTVSS | high polyreactivity
QVQLVESGGGLFQAGGRLRLSCAASGSIFPPYAMGWYRQAPGKERELVAAINWSGGRTYYADSVKGRFTISRDHPKNTLYLHMNSLKPEDTEDYYGAADLRRYSGEYYYWGQRTQVTVSS | high polyreactivity
QVQIVDSGGGLVQAGGSLRLSCAASGRNFGYYAMGWYRQAPGKERELVAAISYSGGSTYYADSVKGRFTISRDMAKNTVYCQMNSLKPEDTAVYYCAAPGRWPQRYGYWGLGTQVTVSS | high polyreactivity
QVQLVESGGGLVQAGGSLRLSCAASGSTFVYMGWYRQAPGKEREFVAAITWSGGSTYYADSVKGRFTISRDNAKNTVYLQMNSLKPEDTAVYYCNAVSDIPGWARYYYWGQGTQVTVSS | low polyreactivity
QVQLVESGGGLVQAGGTLRLSGAASGSTFVYNAMGWNIQAPGKERDLVAVITRRGGSPYYADSVNGRFTISRDNEKKTVYLQMNILNPEDTAVYYCAAGYRRTQTTDYHYWGHGTQVTVSS | high polyreactivity
QVQLVESGGGLVQAGGSLRFSCSAYGSILPGYAMGWYRQAPGKERELVDAISYRGTSTYYADSVKGRFTISRDNAKNTVYLQMNSLKPEDTAVYYCAAGGSWFSYPPRMDYWGQGTQVTVSS | high polyreactivity
QVQLVESGGGLVQAGGSLRFSCAASGSTFRYNAMGWYRQAPGKERELVAVISWGGGRTYYADSVKGRFTISRDNAKNTVYLKMNSLKPEDTAVYYCNVYFGRIVARDYGYWGQGTQVTVSS | high polyreactivity
QVQLVESGGGLVQAGGSLRLSSAASGRIFPFNAMGWYRQAPGKERELVAAITSSGGRTYYADSVKGRFTISRDNAKNTVYLQMNSLTPEDTAVYYCAGTLVRRARSGPMGYWGQGTQVTVSS | high polyreactivity
QVQLVESGGGLVQAGGSLRLSCAASGSIFGRNAMGWYRQAPGKERELVAAISFIGGSTYYADSVKGRFTISRDNAKNTVYLQMNSLKPEDTAVYYCATSVFYYGSLYGYWGQGTQVTVSS | high polyreactivity
QVKLVQSGGGLVEAGGSLLLSCAASGRIFDQYAMGWYRPAPGKERELVAAITTSGDNTYYADSVKGRFTISRDNAKNTVYLQMNSLKPEDTAVYYCKVDIDTFWYGSDYWGQVTQVTVSS | high polyreactivity
QVQLVESGGGLVQAGGSLRLSCAASGRIFSGNAMGWYRQAPGKERELVANITSSSNTNYADSVKGRFTISRDNAKNTVYLQMNSLKPEDTAVYYCAKSAHNGYSFYGYDYWGQGTQVTVSS | low polyreactivity
QVQLVESGGALVQAGGSLRLSCAASGSTFPYYAMGWYRQAPGKERELVAAISRGGGITYYADSVKGRLTISRDNAKNTVYLQMISLKPEDTAVYYCAARGFWWPYTYYYWGQGTQVTVSS | high polyreactivity
QVQLVESGGGLVQAGGSLRLSCSASGFTFYRYAMGWYRQAPGKERELVAAITSGGSTYYADSVKGRFTISRDNAKNTVYLQMNSLKPEDTAVYYCAAQKARVFRGAWTRYEYWGQGTQVTVSS | high polyreactivity

Sequence | polyreactivity (PSR sort gate)
QVQLVESGGGFVQAGGSLRLSCAASGYTFDHNAMGWYRQAPGKERELVAAISLTGSSTYYADSVKGRFTISRDNANNNVYLQMNSLKPEDTAVYYCAAVYHQAFKYKFNYWGQGTQVTVSS | low polyreactivity
QVQLVESGGGLVQAGGSLRLSCAASGRIFGDNVMGWYRQPPGKERELVAAIRKSGGNTYYADSVKGRFTISRDNAKNTVYLHMNSLKPEDTAVYYCAARYPYLYGFVEYDYWGQGTQVTLSS | low polyreactivity
QVQLVESGGGLVQAGGSLRLSCAASGSTFGYYTMGWYRQAPGKERELVAAISGSGGRTYYADSVKGRFTISRDNAKKTVNLQMNSLKPEDTAVYYCAAEGRSDWGGDDYYWGQGTQVTVSS | low polyreactivity
QVQLVESGGGLVQAGGSLRLSCAASGFTFPYNAMGWYRQAPGKERELVAAISSGDSTYYADSVKGRFTISRDNAKNTVYLQMKSLKPEDTAVYYCDAYPSLYYTKYDYWGQGTQVTVSS | high polyreactivity
QLQLVESGGGLVQAGGSLRLSCAASGVIFRAYAMGSSRQAPGQERELVAAISGRGGSTYYADSVKGRFTISRDNAKNTVYLQMNSLKPEDTAVYYCNVPLIHPGAPYEYWGQGTQVTVSS | high polyreactivity
QVQLVESGGCLVQAGGSLRLSCAASGGTFGPNAKGSYRQAPGKERELVAAISWTTGRTYADSVKGRFTISRDNAKNTVYLQMNSLKPEDTAVYYCATRAYRLDPLQHDYWGQGTQVTVSS | low polyreactivity
QVQLVESGGGEVQAGGSLRLSCAASGSIFRFYTMGWSRQAPGTERELVATLARGGSTNYADSVKGRFTISRDTAKNTVYLQMNSLKPEDTAVYYCNVAALYSTYCGYGYDYSGQGTQVTVSS | high polyreactivity
QVQLVESGGGLVQAGGSLRLSCAASGSIFQANAMGWYRQAPGKEWEFVAAINWSTGTTYYADSVKGRFTISRDNAKNTVYLQMNSLKPEDTAVYYCNASDQAKYDYWGQGTQVTVSS | low polyreactivity
QVQLVESGGGLVQAGGSLRLSCAASGRIFYLNVMGWYRQAPGKERELVAAITRRDVTTYADSVKGRFTISRDNAKNTVYLEMNSLKPEDTAVYYCNAVYYNWIGFDYWGQGTQVTVSS | low polyreactivity
QVQLVESGGGLVQAGGSLRLSCAASGFTFPSNAMGWYRQAPGKERELVAAISSTDSTNYADSVKGRFTISRDNAKNTVYLQMNSLKPEDTAVYYCNADRDDDYDYWGQGTQVTVSS | low polyreactivity
QVQLVESGGGLVQAGGSHRLSCAASGFTFRHYTMGWYRQAPGKERELVAVITRSGGSTYYADSVKGRFTISRDNAKNTVYLQMNSLKPEDTAVYYCAVGRTYNADGYWGQGTQVTVSS | high polyreactivity
QVQLVESGGGLVQAGGSLRLSCAASGLIFPSYAMGWYRQAPGKERELVAGINSGGSTNYADSVKGRFTISRDNAKNTVYLQMNSLKPEDTAVYYCAKDNNYYWYVSPRDYWGQGTQVTVSS | low polyreactivity
QVQLVESGGGLVQAGGRLRLSCAASGSILGDNAMGWYRQAPGKERELVAAISYRGGSTYADSVKGRFTISRDNATNTVYLQKNSLKPDDTAVYYCNKTDIDDSQYREYEYWGQGTQVTVSS | low polyreactivity
QVQLVESGGGLVQAGGSLRLSCAASGSIFSWYAMAWYRQAPGKETELVADITWTVGSTYYADSVKGRFTISRDNAKNPVYLQMNSLIPEDTAVYYWAARRVVYRYYWYSAYDYSGQGTQVTVSS | high polyreactivity
QVQLVESGGGLVQAGGSLRLSCAASASTLYRTAMGWYRPAPGKEREMVAAINYRGTRTYYADSVKGRFTISRDNAKNTVYLLMKSLNPEDTAVYYCAKDYSQFVTYPYDYWGQGTQVSVSS | low polyreactivity
QVQLVESGGGLVQAGGSLRLSCAASGSIFRRNAMGWYRQAPGKERELVAAISQSGGSTYYADSVKGRFTISRDNAKNTVYLQMNSLKPEDTAVYYCAAKHRVYGTRGYGYDYWGQGTQVTVSS | high polyreactivity
QDQIVESWGGLVQSGGSLRLTCAASGRTFSTYAMGWYRQAPGKERELVAAISWRGARTYYADSVKGRFTISRDNAKNTVYLQMNSLKPEDTAVYYCAAAPYRYRRYEYWGQGTQVTVSS | high polyreactivity
QVQLVESGGGLVQEGGSLRLSCAASGFTFVGYAMGWYRQAPGKERELLASIPWGGDRTYYADTVKGRFTISRDNAKNTDYLQMNSLKPEDTAVYYCNAQYEIWRVTFSPYDRWGYDYWGQGTQVTVSS | low polyreactivity
QVQLVESGGGLVQAGGSLRLSCAASGITFSVYTMGWYIQAPGKERELVAAIDSDGITNYADSVKGRFTISRDNEKNNVYLQMNSLKPEDTAVSYCAKQTGRADGVSGFDYWGQGTQVTVSS | low polyreactivity
QVQLVESGGGLVQAGGSLRLSCAASGFIFHYNAMGWYRQAPGKERELVAAITSGDSTDYADSVKGRFTISRDNAKNTVYLQMNSLKPEDTAVYYCAAYHREGRRDDYWGQGTQVTVSS | low polyreactivity
